The source of these data is patent publication US20180258163A1 (Chugai, published 2018).

Where a chain is given by its changes, count along the chain named. Numbers in names are those of the source.

First the molecules themselves.
T1: soluble human FcγRIIb (human, UniProt P31994 43-217, limits assumed)
T1 construct: soluble His-tagged form; also called hFcγRIIb
T1 sequence (looked up): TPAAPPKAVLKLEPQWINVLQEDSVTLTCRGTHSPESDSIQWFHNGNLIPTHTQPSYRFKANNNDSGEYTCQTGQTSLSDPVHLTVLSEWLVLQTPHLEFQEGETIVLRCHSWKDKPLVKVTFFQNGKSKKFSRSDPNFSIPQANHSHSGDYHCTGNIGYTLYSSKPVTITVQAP

B1: Ab1H-P938/Ab1L (antibody, human IgG1, kappa, name in EU numbering)
heavy: QVQLVESGGGLVQPGGSLRLSCAASGFTLSNHDMTWVRQAPGKGLEYVSIINTYGNHWYANWASGRFTISRDNSKNTVYLQIDSLRAEDTATYYCARETHHGSSGIDHWGQGTLVTVSSASTKGPSVFPLAPSSKSTSGGTAALGCLVKDYFPEPVTVSWNSGALTSGVHTFPAVLQSSGLYSLSSVVTVPSSSLGTQTYICNVNHKPSNTKVDKKVEPKSCDKTHTCPPCPAPELLGGDSVFLFPPKPKDTLMISRTPEVTCVVVDVSHEDREVKFNWYVDGVEVHNAKTKPREEQYNATYRVVSVLTVLHQDWLNGKEYKCKVSNKALPAPIEKTISKAKGQPREPQVYTLPPSREEMTKNQVSLTCLVKGFYPSDIAVEWESNGQPENNYKTTPPVLDSDGSFFLYSKLTVDKSRWQQGNVFSCSVMHEALHNHYTQKSLSLSP
light: DIQMTQSPSSVSASVGDRVTITCQASESIYSGLAWYQQKPGQPPKLLIYDHSTLASGVPSRFSGSGSGTEYALTISSLQPEDFATYYCQHADYAHHSDNVFGGGTKVEIKRTVAAPSVFIFPPSDEQLKSGTASVVCLLNNFYPREAKVQWKVDNALQSGNSQESVTEQDSKDSTYSLSSTLTLSKADYEKHKVYACEVTHQGLSSPVTKSFNRGEC
notes: copies: 2 + 2
B2: Ab1H-P939/Ab1L (antibody, human IgG1, kappa, name in EU numbering)
heavy: B1 heavy with D272R, R273P
light: B1 light
notes: copies: 2 + 2
B3: Ab1H-P941/Ab1L (antibody, human IgG1, kappa, name in EU numbering)
heavy: B1 heavy with H270R, R273P
light: B1 light
notes: copies: 2 + 2
B4: Ab1H-P940/Ab1L (antibody, human IgG1, kappa, name in EU numbering)
heavy: B1 heavy with E271R, R273P
light: B1 light
notes: copies: 2 + 2
B5: Ab1H/Ab1L004 (antibody, human IgG1, kappa)
heavy: not shown
light: B1 light with Q24K, E27K
notes: copies: 2 + 2
B6: Ab1H/Ab1L018 (antibody, human IgG1, kappa)
heavy: not shown
light: B1 light with Q24R, E27R, L46R, Y49K
notes: copies: 2 + 2
B7: Ab1H/Ab1L023 (antibody, human IgG1, kappa)
heavy: not shown
light: B1 light with Q24R, E27R, S76R, Q79K
notes: copies: 2 + 2
B8: Ab1H/Ab1L006 (antibody, human IgG1, kappa)
heavy: not shown
light: B1 light with A25R, S26R
notes: copies: 2 + 2
B9: Ab1H/Ab1L030 (antibody, human IgG1, kappa)
heavy: not shown
light: B1 light with A25R, S26R, S65R, T69R
notes: copies: 2 + 2
B10: Ab1H/Ab1L021 (antibody, human IgG1, kappa)
heavy: not shown
light: B1 light with Q24R, E27R, S65R, T69R
notes: '169R' read as T69R; copies: 2 + 2
B11: Ab1H/Ab1L040 (antibody, human IgG1, kappa)
heavy: not shown
light: B1 light with Q24R, E27R, G41R, Q42K, S76R, Q79K
notes: copies: 2 + 2
B12: Ab1H/Ab1L020 (antibody, human IgG1, kappa)
heavy: not shown
light: B1 light with Q24R, E27R, S52K, S56K
notes: copies: 2 + 2
B13: Ab1H/Ab1L029 (antibody, human IgG1, kappa)
heavy: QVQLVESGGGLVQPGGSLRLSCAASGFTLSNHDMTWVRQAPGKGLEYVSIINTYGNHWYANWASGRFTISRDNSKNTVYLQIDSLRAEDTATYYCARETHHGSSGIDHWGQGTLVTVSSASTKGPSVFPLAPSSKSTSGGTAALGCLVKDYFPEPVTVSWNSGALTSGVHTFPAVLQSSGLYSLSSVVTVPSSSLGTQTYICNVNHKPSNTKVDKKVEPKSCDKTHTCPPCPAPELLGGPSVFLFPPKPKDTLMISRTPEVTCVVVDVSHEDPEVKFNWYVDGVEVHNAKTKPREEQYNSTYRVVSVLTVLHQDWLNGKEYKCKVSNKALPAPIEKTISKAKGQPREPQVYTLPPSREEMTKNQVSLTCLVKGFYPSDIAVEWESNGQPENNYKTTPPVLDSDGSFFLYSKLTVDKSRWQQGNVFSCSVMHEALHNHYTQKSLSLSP
light: B1 light with A25R, S26R, S52K, S56K
notes: copies: 2 + 2
B14: Ab1H/Ab1L028 (antibody, human IgG1, kappa)
heavy: not shown
light: B1 light with A25R, S26R, S52R, S56R
notes: copies: 2 + 2
B15: Ab1H/Ab1L041 (antibody, human IgG1, kappa)
heavy: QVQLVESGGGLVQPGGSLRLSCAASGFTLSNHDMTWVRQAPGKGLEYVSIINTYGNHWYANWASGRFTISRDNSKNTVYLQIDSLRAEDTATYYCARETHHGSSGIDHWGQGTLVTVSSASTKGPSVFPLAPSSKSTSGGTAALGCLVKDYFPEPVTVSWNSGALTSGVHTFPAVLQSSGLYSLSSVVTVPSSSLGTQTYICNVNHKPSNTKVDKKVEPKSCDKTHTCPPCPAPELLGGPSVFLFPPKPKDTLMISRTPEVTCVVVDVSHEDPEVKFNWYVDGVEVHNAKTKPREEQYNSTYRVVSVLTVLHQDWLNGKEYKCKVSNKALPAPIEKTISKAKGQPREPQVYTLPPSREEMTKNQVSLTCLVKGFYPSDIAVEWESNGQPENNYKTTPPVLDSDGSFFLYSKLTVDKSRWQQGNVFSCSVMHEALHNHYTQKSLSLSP
light: B1 light with Q24R, E27R, S52R, S56R, S76R, Q79K
notes: copies: 2 + 2
B16: Ab1H/Ab1L015 (antibody, human IgG1, kappa)
heavy: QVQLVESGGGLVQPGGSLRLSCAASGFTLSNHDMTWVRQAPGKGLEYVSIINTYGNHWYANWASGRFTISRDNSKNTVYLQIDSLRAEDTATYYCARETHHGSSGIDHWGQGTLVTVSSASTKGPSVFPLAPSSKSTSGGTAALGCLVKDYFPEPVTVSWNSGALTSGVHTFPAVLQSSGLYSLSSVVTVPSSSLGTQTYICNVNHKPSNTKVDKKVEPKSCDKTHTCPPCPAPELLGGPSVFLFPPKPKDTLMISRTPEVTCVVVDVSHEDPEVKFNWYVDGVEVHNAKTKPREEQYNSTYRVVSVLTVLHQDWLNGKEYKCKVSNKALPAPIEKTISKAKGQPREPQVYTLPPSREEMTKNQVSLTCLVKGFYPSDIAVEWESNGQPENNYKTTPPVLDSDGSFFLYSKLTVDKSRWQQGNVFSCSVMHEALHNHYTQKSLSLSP
light: B1 light with G16K, Q24R, E27R
notes: copies: 2 + 2
B17: Ab1H/Ab1L036 (antibody, human IgG1, kappa)
heavy: not shown
light: B1 light with Q24R, E27R, S65R, T69R, S76R, Q79K
notes: copies: 2 + 2
B18: Ab1H/Ab1L013 (antibody, human IgG1, kappa)
heavy: not shown
light: B1 light with T74K, S77R
notes: copies: 2 + 2
B19: Ab1H/Ab1L007 (antibody, human IgG1, kappa)
heavy: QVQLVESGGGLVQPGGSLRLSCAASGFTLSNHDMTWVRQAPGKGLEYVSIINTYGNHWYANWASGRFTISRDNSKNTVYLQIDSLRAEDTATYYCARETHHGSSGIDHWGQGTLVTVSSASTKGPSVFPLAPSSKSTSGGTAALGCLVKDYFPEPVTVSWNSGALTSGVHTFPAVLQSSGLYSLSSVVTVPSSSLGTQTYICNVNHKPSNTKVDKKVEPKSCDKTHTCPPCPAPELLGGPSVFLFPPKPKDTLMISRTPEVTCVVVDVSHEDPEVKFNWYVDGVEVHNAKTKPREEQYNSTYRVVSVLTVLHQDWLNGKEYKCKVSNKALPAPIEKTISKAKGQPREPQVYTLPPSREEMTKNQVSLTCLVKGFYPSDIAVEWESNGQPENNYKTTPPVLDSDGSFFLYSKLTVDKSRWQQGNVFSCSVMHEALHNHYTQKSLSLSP
light: B1 light with Q37R
notes: copies: 2 + 2
B20: Ab1H/Ab1L022 (antibody, human IgG1, kappa)
heavy: not shown
light: B1 light with Q24R, E27R, T74K, S77R
notes: copies: 2 + 2
B21: Ab1H/Ab1L009 (antibody, human IgG1, kappa)
heavy: not shown
light: B1 light with L46R, Y49K
notes: copies: 2 + 2
B22: Ab1H/Ab1L001 (antibody, human IgG1, kappa)
heavy: not shown
light: B1 light with G16K
notes: light chain = Ab1L with G16K (Kabat); also called Ab1L001T; copies: 2 + 2
B23: Ab1H/Ab1L005 (antibody, human IgG1, kappa)
heavy: not shown
light: B1 light with A25K, S26K
notes: '526K' read as S26K; copies: 2 + 2
B24: Ab1H/Ab1L035 (antibody, human IgG1, kappa)
heavy: not shown
light: B1 light with Q24R, E27R, S65R, T69R, T74K, S77R
notes: copies: 2 + 2
B25: Ab1H/Ab1L034 (antibody, human IgG1, kappa)
heavy: not shown
light: B1 light with Q24R, E27R, S52R, S56R, S65R, T69R
notes: copies: 2 + 2
B26: Ab1H/Ab1L003 (antibody, human IgG1, kappa)
heavy: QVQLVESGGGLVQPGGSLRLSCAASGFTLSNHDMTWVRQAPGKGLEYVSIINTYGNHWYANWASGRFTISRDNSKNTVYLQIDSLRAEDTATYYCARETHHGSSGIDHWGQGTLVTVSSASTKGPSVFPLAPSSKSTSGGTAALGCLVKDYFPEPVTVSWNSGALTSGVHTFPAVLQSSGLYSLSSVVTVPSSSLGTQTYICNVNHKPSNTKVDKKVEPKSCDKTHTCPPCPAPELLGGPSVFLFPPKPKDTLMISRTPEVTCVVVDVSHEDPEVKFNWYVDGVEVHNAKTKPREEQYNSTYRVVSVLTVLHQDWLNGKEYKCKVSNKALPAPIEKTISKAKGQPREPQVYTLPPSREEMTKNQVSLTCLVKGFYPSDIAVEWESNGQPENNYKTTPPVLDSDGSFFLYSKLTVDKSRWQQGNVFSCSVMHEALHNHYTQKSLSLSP
light: B1 light with Q24R, E27R
notes: copies: 2 + 2
B27: Ab1H/Ab1L033 (antibody, human IgG1, kappa)
heavy: not shown
light: B1 light with Q24R, E27R, G41R, Q42K, S65R, T69R
notes: copies: 2 + 2
B28: Ab1H/Ab1L019 (antibody, human IgG1, kappa)
heavy: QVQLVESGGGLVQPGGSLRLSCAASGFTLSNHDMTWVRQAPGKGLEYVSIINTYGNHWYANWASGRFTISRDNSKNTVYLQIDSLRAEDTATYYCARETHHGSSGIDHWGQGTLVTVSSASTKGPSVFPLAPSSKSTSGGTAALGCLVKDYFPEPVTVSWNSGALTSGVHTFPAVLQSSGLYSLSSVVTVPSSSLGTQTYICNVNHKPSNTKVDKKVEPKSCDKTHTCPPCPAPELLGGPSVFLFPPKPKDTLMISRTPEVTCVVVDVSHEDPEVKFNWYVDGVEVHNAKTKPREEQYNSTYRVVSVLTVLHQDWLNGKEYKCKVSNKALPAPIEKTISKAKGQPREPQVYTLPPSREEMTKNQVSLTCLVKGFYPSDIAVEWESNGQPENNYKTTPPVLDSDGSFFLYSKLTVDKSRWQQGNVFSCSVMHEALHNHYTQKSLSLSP
light: B1 light with Q24R, E27R, S52R, S56R
notes: copies: 2 + 2
B29: Ab1H/Ab1L037 (antibody, human IgG1, kappa)
heavy: not shown
light: B1 light with Q24R, E27R, G41R, Q42K, T74K, S77R
notes: copies: 2 + 2
B30: Ab1H/Ab1L017 (antibody, human IgG1, kappa)
heavy: not shown
light: B1 light with Q24R, E27R, G41R, Q42K
notes: copies: 2 + 2
B31: Ab1H/Ab1L002 (antibody, human IgG1, kappa)
heavy: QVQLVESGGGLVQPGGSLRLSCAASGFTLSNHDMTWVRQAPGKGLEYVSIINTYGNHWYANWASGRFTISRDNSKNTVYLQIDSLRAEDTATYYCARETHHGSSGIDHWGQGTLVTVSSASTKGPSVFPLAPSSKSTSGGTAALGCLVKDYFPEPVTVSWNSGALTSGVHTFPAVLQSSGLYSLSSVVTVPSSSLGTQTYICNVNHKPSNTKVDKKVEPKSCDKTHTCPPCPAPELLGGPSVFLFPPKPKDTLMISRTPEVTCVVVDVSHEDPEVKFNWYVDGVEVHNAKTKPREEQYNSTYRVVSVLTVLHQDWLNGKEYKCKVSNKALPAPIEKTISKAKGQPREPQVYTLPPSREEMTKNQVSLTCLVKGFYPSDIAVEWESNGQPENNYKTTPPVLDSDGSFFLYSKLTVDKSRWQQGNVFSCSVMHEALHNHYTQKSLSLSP
light: B1 light with Q24R, E27Q
notes: copies: 2 + 2
B32: Ab1H/Ab1L016 (antibody, human IgG1, kappa)
heavy: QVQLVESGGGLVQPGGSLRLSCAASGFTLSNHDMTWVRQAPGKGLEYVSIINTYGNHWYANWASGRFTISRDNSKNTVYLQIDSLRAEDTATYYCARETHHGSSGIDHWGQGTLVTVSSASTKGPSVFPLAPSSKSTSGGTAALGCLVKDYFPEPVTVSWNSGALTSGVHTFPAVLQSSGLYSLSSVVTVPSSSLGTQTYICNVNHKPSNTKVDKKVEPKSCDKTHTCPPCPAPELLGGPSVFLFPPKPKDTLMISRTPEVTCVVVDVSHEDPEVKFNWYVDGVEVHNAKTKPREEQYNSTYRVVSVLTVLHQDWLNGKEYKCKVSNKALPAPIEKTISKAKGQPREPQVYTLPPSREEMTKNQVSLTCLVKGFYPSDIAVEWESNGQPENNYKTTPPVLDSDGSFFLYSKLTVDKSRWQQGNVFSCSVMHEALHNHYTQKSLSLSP
light: B1 light with Q24R, E27R, Q37R
notes: copies: 2 + 2
B33: Ab1H/Ab1L039 (antibody, human IgG1, kappa)
heavy: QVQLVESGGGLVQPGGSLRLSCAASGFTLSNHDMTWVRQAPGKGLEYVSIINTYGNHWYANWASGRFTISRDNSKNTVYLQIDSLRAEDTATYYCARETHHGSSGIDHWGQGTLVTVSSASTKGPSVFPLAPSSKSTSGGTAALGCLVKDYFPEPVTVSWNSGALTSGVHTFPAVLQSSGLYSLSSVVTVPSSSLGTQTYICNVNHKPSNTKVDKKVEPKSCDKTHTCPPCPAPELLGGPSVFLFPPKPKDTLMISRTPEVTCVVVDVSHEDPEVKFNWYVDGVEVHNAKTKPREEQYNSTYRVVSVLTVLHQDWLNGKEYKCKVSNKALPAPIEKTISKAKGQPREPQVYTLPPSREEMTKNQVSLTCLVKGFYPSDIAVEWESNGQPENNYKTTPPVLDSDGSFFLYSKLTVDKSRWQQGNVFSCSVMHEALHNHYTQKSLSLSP
light: B1 light with Q24R, E27R, T74K, S76R, S77R, Q79K
notes: copies: 2 + 2
B34: Ab1H/Ab1L012 (antibody, human IgG1, kappa)
heavy: not shown
light: B1 light with S65R, T69R
notes: copies: 2 + 2
B35: Ab1H/Ab1L008 (antibody, human IgG1, kappa)
heavy: not shown
light: B1 light with G41R, Q42K
notes: copies: 2 + 2
B36: Ab1H/Ab1L011 (antibody, human IgG1, kappa)
heavy: not shown
light: B1 light with S52K, S56K
notes: copies: 2 + 2
B37: Ab1H/Ab1L025 (antibody, human IgG1, kappa)
heavy: not shown
light: B1 light with A25R, S26R, Q37R
notes: copies: 2 + 2
B38: Ab1H/Ab1L010 (antibody, human IgG1, kappa)
heavy: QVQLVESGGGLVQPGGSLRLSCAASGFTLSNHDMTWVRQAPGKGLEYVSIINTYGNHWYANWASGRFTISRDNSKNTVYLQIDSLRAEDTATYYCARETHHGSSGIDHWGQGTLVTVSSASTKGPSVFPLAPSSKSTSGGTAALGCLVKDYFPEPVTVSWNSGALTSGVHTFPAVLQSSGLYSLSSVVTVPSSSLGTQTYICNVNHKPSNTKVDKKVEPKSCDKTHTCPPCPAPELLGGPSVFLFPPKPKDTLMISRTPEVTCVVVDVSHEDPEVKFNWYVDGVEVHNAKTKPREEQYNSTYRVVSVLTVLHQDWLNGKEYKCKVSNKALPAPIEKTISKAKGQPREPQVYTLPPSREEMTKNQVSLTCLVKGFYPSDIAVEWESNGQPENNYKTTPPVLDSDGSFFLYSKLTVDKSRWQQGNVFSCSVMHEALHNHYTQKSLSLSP
light: B1 light with S52R, S56R
notes: copies: 2 + 2
B39: Ab1H/Ab1L014 (antibody, human IgG1, kappa)
heavy: not shown
light: B1 light with S76R, Q79K
notes: copies: 2 + 2
B40: Ab1H/Ab1L038 (antibody, human IgG1, kappa)
heavy: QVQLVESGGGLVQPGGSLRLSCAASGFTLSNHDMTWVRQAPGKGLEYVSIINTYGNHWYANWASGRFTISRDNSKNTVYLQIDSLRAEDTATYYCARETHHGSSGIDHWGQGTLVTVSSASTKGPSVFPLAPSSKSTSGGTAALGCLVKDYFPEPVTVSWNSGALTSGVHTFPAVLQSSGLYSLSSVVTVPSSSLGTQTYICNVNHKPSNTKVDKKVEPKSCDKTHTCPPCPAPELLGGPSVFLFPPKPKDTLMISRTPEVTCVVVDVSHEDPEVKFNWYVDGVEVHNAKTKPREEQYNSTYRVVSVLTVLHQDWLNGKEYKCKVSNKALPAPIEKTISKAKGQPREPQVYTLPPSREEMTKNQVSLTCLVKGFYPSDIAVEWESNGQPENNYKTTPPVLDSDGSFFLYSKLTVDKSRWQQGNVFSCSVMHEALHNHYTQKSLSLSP
light: B1 light with Q24R, E27R, S52R, S56R, T74K, S77R
notes: copies: 2 + 2

The target of the first assay is T1, soluble human FcγRIIb. Nature of the assay: SPR, Ab-IgE complex over captured hFcγRIIb, pH 7.4, 25C.
For the molecule B1, the “relative binding (RU), P600=1.00” value was -0.06 fold.
The same measure, in the same setting: the result for B2 reads -0.07 fold; that for B3, 0.47 fold; that for B4, -0.05 fold.

In a further assay the target is T1, soluble human FcγRIIb. The description is as above. The source holds these as a separate data set. Here is the method: Regarding the produced Fc region variant-containing antibodies, binding assays between soluble human FcγRIIb and antigen-antibody complexes were performed using BIACORE T200 (GE Healthcare). Soluble human FcγRIIb (NCBI accession NM_004001.3) was produced in the form of a His-tagged molecule by a method known in the art. An appropriate amount of an anti-His antibody was fixed onto Sensor chip CM5 (GE Healthcare) by the amine coupling method using a His capture kit (GE Healthcare) to capture human FcγRIIb. Next, an antibody-antigen complex and a running buffer (as a reference solution) were injected, and interaction was allowed to take place with the human FcγRIIb captured onto the sensor chip. 20 mM N-(2-Acetamido)-2-aminoethanesulfonic acid, 150 mM NaCl, 1.2 mM CaCl₂, and 0.05% (w/v) Tween 20 at pH 7.4 was used as the running buffer, and the respective buffer was also used to dilute the soluble human FcγRIIb. To regenerate the sensor chip, 10 mM glycine-HCl at pH 1.5 was used. All measurements were carried out at 25° C. Analyses were performed based on binding (RU) calculated from sensorgrams obtained by the measurements, and relative values when the binding amount of Ab1H/Ab1L (original Ab1) was defined as 1.00 are shown. To calculate the parameters, the BIACORE T100 Evaluation Software (GE Healthcare) was used.
As to B5, the “BIACORE fold (relative binding, original Ab1=1.00)” value was 1.01 fold.
Same read-out and setting: the result for B6 reads 0.07 fold; that for B7, 1.39 fold.
Still for that read-out and setting: the result for B8 reads 1.18 fold; that for B9, 1.16 fold.
On the same count and under the same terms, in the case of B10 it was 1.36 fold; in that of B11, 1.23 fold; in that of B12, 1.22 fold.
As to B13, the “BIACORE fold (relative binding, original Ab1=1.00)” value is 1.23 fold.
On the same count and under the same terms, the result for B14 reads 1.46 fold; that for B15, 1.35 fold.
Still for that read-out and setting: in the case of B16 it was 1.25 fold; in that of B17, 1.48 fold; in that of B18, 1.7 fold.
Still for that read-out and setting: in the case of B19 it was 1.06 fold.
For the molecule B20, the “BIACORE fold (relative binding, original Ab1=1.00)” value came out at 1.45 fold.
On to B21, for which the “BIACORE fold (relative binding, original Ab1=1.00)” value is -0.02 fold.
Same read-out and setting: the result for B22 reads 1.03 fold; that for B23, 0.84 fold; that for B24, 1.49 fold.
Same read-out and setting: the result for B25 reads 1.71 fold; that for B26, 1.09 fold.
As to B27, the “BIACORE fold (relative binding, original Ab1=1.00)” value is 1.26 fold.
Same read-out and setting: the result for B28 reads 1.17 fold.
Still for that read-out and setting: in the case of B29 it was 1.38 fold.
The same measure, in the same setting: the result for B30 reads 1.27 fold.
With B31, the “BIACORE fold (relative binding, original Ab1=1.00)” value worked out at 1.03 fold.
On the same count and under the same terms, the result for B32 reads 1.36 fold.
On the same count and under the same terms, in the case of B33 it was 0.99 fold.
Same read-out and setting: in the case of B34 it was 0.97 fold.
In the case of B35, the “BIACORE fold (relative binding, original Ab1=1.00)” value stood at 1.07 fold.
Still for that read-out and setting: the result for B36 reads 1.02 fold; that for B37, 1.39 fold.
Turning to B38, the “BIACORE fold (relative binding, original Ab1=1.00)” value was 0.98 fold.
Same read-out and setting: in the case of B39 it was 1.08 fold; in that of B40, 1.47 fold.
